Laboratory results: publication PMC5510750 (Immunity, 2017)

T1: IFN-λR1, soluble recombinant receptor (UniProt Q8IU57 21-226)
T1 sequence: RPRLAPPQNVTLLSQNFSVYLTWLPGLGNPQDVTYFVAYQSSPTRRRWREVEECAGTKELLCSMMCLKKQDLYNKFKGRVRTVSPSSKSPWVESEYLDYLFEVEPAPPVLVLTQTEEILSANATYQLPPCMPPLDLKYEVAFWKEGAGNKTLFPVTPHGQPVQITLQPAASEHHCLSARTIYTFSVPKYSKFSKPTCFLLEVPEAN

B1: IL-10Rβ, monomeric soluble receptor (receptor)
chain: MVPPPENVRMNSVNFKNILQWESPAFAKGNLTFTAQYLSYRIFQDKCMNTTLTECDFSSLSKYGDHTLRVRAEFADEHSDWVNITFCPVDDTIIGPPGMQVEVLADSLHMRFLAPKIENEYETWTMKNVYNSWTYNVQYWKNGTDEKFQITPQYDFEVLRNLEPWTTYCVQVRGFLPDRNKAGEWSEPVCEQTTHDETVPS
modifications: Alexa 647 label (in the yeast staining)
B2: H11/IFN-λR1 binary complex (complex)
chain 1: GSARGCHIAQFKSLSPRELQAFKRAKDALEESLLLKDCKCRSRLFPRTWDLRQLQVRERPVALEAELALTLKVLDATADTDPALGDVLDQPLHTLHHILSQLRACIQPQPTAGPRTRGRLHRWLHRLQEAPKKESPGCLEASVTFNLFRLLARDLNCVASGDLCEAAAHHHHHHHH
chain 2: RPRLAPPQNVTLLSQNFSVYLTWLPGLGNPQDVTYFVAYQSSPTRRRWREVEECAGTKELLCSMMCLKKQDLYNKFKGRVRTVSPSSKSPWVESEYLDYLFEVEPAPPVLVLTQTEEILSANATYQLPPCMPPLDLKYEVAFWKEGAGNKTLFPVTPHGQPVQITLQPAASEHHCLSARTIYTFSVPKYSKFSKPTCFLLEVPEAN

Assays:
Test in all cases: SPR
[1] = target: B2
[2] = target: T1, IFN-λR1, soluble recombinant receptor
[3] = target: B1

| Kd [2] [nM] | further results | Binder |
| --- | --- | --- |
|  | fold increase in affinity against the wild-type IFN-λ3/IFN-λR1 binary complex [1]: 30 fold | B1 |
| ~850 |  | Wild-type IFN-λ3, recombinant (ligand) VPVARLRGALPDARGCHIAQFKSLSPQELQAFKRAKDALEESLLLKDCKCRSRLFPRTWDLRQLQVRERPVALEAELALTLKVLEATADTDPALGDVLDQPLHTLHHILSQLRACIQPQPTAGPRTRGRLHHWLHRLQEAPKKESPGCLEASVTFNLFRLLTRDLNCVASGDLCV |
|  | Kd [3]: 560 nM | B2 |
| ~150 |  | IFN-λ3 H11, recombinant (designed binder) GSARGCHIAQFKSLSPRELQAFKRAKDALEESLLLKDCKCRSRLFPRTWDLRQLQVRERPVALEAELALTLKVLDATADTDPALGDVLDQPLHTLHHILSQLRACIQPQPTAGPRTRGRLHRWLHRLQEAPKKESPGCLEASVTFNLFRLLARDLNCVASGDLCEAAAHHHHHHHH |
